This test has as its target TLR2/TLR6 heterodimer. The test can be described thus: cell-based or functional assay.

As for CBLB613 (peptide), the NF-κB activation stood at 200.

With CBLB617 (peptide), the NF-κB activation came out at 100.
